Key:
[1] = molecular target: truncated TSH receptor chimera B (extracellular portion) fused with the secretory alkaline phosphatase (human TSHR with rat LH-CGR subsequence); assay: bridge assay: standard at 0.7 IU/L on plate-bound TSH receptor chimera B, detected with SEAP-chimera B, chemiluminescence
[2] = molecular target: truncated TSH receptor chimera B (extracellular portion) fused with the secretory alkaline phosphatase (human TSHR with rat LH-CGR subsequence); assay: bridge assay: standard at 15.0 IU/L on plate-bound TSH receptor chimera B, detected with SEAP-chimera B, chemiluminescence
[3] = molecular target: truncated TSH receptor chimera B (extracellular portion) fused with the secretory alkaline phosphatase (human TSHR with rat LH-CGR subsequence); assay: bridge assay: standard at 0.4 IU/L on plate-bound TSH receptor chimera B, detected with SEAP-chimera B, chemiluminescence
[4] = molecular target: truncated TSH receptor chimera B (extracellular portion) fused with the secretory alkaline phosphatase (human TSHR with rat LH-CGR subsequence); assay: bridge assay: standard at 0.8 IU/L on plate-bound TSH receptor chimera B, detected with SEAP-chimera B; RLU relative to zero serum
[5] = molecular target: truncated TSH receptor chimera B (extracellular portion) fused with the secretory alkaline phosphatase (human TSHR with rat LH-CGR subsequence); assay: bridge assay: standard at 0.1 IU/L on plate-bound TSH receptor chimera B, detected with SEAP-chimera B, chemiluminescence
[6] = molecular target: truncated TSH receptor chimera B (extracellular portion) fused with the secretory alkaline phosphatase (human TSHR with rat LH-CGR subsequence); assay: bridge assay: standard at 0.6 IU/L on plate-bound TSH receptor chimera B, detected with SEAP-chimera B, chemiluminescence
[7] = molecular target: truncated TSH receptor chimera B (extracellular portion) fused with the secretory alkaline phosphatase (human TSHR with rat LH-CGR subsequence); assay: bridge assay: standard at 2.0 IU/L on plate-bound TSH receptor chimera B, detected with SEAP-chimera B; RLU relative to zero serum
[8] = molecular target: truncated TSH receptor chimera B (extracellular portion) fused with the secretory alkaline phosphatase (human TSHR with rat LH-CGR subsequence); assay: bridge assay: standard at 0.1 IU/L on plate-bound TSH receptor chimera B, detected with SEAP-chimera B; RLU relative to zero serum
[9] = molecular target: truncated TSH receptor chimera B (extracellular portion) fused with the secretory alkaline phosphatase (human TSHR with rat LH-CGR subsequence); assay: bridge assay: standard at 50.0 IU/L on plate-bound TSH receptor chimera B, detected with SEAP-chimera B; RLU relative to zero serum
[10] = molecular target: truncated TSH receptor chimera B (extracellular portion) fused with the secretory alkaline phosphatase (human TSHR with rat LH-CGR subsequence); assay: bridge assay: standard at 0.6 IU/L on plate-bound TSH receptor chimera B, detected with SEAP-chimera B; RLU relative to zero serum
[11] = molecular target: truncated TSH receptor chimera B (extracellular portion) fused with the secretory alkaline phosphatase (human TSHR with rat LH-CGR subsequence); assay: bridge assay: standard at 15.0 IU/L on plate-bound TSH receptor chimera B, detected with SEAP-chimera B; RLU relative to zero serum
[12] = molecular target: truncated TSH receptor chimera B (extracellular portion) fused with the secretory alkaline phosphatase (human TSHR with rat LH-CGR subsequence); assay: bridge assay: standard at 1.0 IU/L on plate-bound TSH receptor chimera B, detected with SEAP-chimera B, chemiluminescence
[13] = molecular target: truncated TSH receptor chimera B (extracellular portion) fused with the secretory alkaline phosphatase (human TSHR with rat LH-CGR subsequence); assay: bridge assay: standard at 5.0 IU/L on plate-bound TSH receptor chimera B, detected with SEAP-chimera B, chemiluminescence
[14] = molecular target: truncated TSH receptor chimera B (extracellular portion) fused with the secretory alkaline phosphatase (human TSHR with rat LH-CGR subsequence); assay: bridge assay: standard at 0.5 IU/L on plate-bound TSH receptor chimera B, detected with SEAP-chimera B; RLU relative to zero serum
[15] = molecular target: truncated TSH receptor chimera B (extracellular portion) fused with the secretory alkaline phosphatase (human TSHR with rat LH-CGR subsequence); assay: bridge assay: standard at 0.3 IU/L on plate-bound TSH receptor chimera B, detected with SEAP-chimera B, chemiluminescence
[16] = molecular target: truncated TSH receptor chimera B (extracellular portion) fused with the secretory alkaline phosphatase (human TSHR with rat LH-CGR subsequence); assay: bridge assay: standard at 50.0 IU/L on plate-bound TSH receptor chimera B, detected with SEAP-chimera B, chemiluminescence
[17] = molecular target: truncated TSH receptor chimera B (extracellular portion) fused with the secretory alkaline phosphatase (human TSHR with rat LH-CGR subsequence); assay: bridge assay: standard at 30.0 IU/L on plate-bound TSH receptor chimera B, detected with SEAP-chimera B, chemiluminescence
[18] = molecular target: truncated TSH receptor chimera B (extracellular portion) fused with the secretory alkaline phosphatase (human TSHR with rat LH-CGR subsequence); assay: bridge assay: standard at 0.8 IU/L on plate-bound TSH receptor chimera B, detected with SEAP-chimera B, chemiluminescence
[19] = molecular target: truncated TSH receptor chimera B (extracellular portion) fused with the secretory alkaline phosphatase (human TSHR with rat LH-CGR subsequence); assay: bridge assay: standard at 0.7 IU/L on plate-bound TSH receptor chimera B, detected with SEAP-chimera B; RLU relative to zero serum
[20] = molecular target: truncated TSH receptor chimera B (extracellular portion) fused with the secretory alkaline phosphatase (human TSHR with rat LH-CGR subsequence); assay: bridge assay: standard at 0.5 IU/L on plate-bound TSH receptor chimera B, detected with SEAP-chimera B, chemiluminescence
[21] = molecular target: truncated TSH receptor chimera B (extracellular portion) fused with the secretory alkaline phosphatase (human TSHR with rat LH-CGR subsequence); assay: bridge assay: standard at 0.2 IU/L on plate-bound TSH receptor chimera B, detected with SEAP-chimera B; RLU relative to zero serum
[22] = molecular target: truncated TSH receptor chimera B (extracellular portion) fused with the secretory alkaline phosphatase (human TSHR with rat LH-CGR subsequence); assay: bridge assay: standard at 5.0 IU/L on plate-bound TSH receptor chimera B, detected with SEAP-chimera B; RLU relative to zero serum
[23] = molecular target: truncated TSH receptor chimera B (extracellular portion) fused with the secretory alkaline phosphatase (human TSHR with rat LH-CGR subsequence); assay: bridge assay: standard at 0.9 IU/L on plate-bound TSH receptor chimera B, detected with SEAP-chimera B, chemiluminescence
[24] = molecular target: truncated TSH receptor chimera B (extracellular portion) fused with the secretory alkaline phosphatase (human TSHR with rat LH-CGR subsequence); assay: bridge assay: standard at 0.9 IU/L on plate-bound TSH receptor chimera B, detected with SEAP-chimera B; RLU relative to zero serum
[25] = molecular target: truncated TSH receptor chimera B (extracellular portion) fused with the secretory alkaline phosphatase (human TSHR with rat LH-CGR subsequence); assay: bridge assay: standard at 0.3 IU/L on plate-bound TSH receptor chimera B, detected with SEAP-chimera B; RLU relative to zero serum
[26] = molecular target: truncated TSH receptor chimera B (extracellular portion) fused with the secretory alkaline phosphatase (human TSHR with rat LH-CGR subsequence); assay: bridge assay: standard at 0.2 IU/L on plate-bound TSH receptor chimera B, detected with SEAP-chimera B, chemiluminescence
[27] = molecular target: truncated TSH receptor chimera B (extracellular portion) fused with the secretory alkaline phosphatase (human TSHR with rat LH-CGR subsequence); assay: bridge assay: standard at 1.0 IU/L on plate-bound TSH receptor chimera B, detected with SEAP-chimera B; RLU relative to zero serum
[28] = molecular target: truncated TSH receptor chimera B (extracellular portion) fused with the secretory alkaline phosphatase (human TSHR with rat LH-CGR subsequence); assay: bridge assay: standard at 2.0 IU/L on plate-bound TSH receptor chimera B, detected with SEAP-chimera B, chemiluminescence
[29] = molecular target: truncated TSH receptor chimera B (extracellular portion) fused with the secretory alkaline phosphatase (human TSHR with rat LH-CGR subsequence); assay: bridge assay: standard at 30.0 IU/L on plate-bound TSH receptor chimera B, detected with SEAP-chimera B; RLU relative to zero serum
[30] = molecular target: truncated TSH receptor chimera B (extracellular portion) fused with the secretory alkaline phosphatase (human TSHR with rat LH-CGR subsequence); assay: bridge assay: standard at 0.4 IU/L on plate-bound TSH receptor chimera B, detected with SEAP-chimera B; RLU relative to zero serum

Sequence of truncated TSH receptor chimera B (extracellular portion) fused with the secretory alkaline phosphatase (human TSHR with rat LH-CGR subsequence) (chain, as listed by the source mutant): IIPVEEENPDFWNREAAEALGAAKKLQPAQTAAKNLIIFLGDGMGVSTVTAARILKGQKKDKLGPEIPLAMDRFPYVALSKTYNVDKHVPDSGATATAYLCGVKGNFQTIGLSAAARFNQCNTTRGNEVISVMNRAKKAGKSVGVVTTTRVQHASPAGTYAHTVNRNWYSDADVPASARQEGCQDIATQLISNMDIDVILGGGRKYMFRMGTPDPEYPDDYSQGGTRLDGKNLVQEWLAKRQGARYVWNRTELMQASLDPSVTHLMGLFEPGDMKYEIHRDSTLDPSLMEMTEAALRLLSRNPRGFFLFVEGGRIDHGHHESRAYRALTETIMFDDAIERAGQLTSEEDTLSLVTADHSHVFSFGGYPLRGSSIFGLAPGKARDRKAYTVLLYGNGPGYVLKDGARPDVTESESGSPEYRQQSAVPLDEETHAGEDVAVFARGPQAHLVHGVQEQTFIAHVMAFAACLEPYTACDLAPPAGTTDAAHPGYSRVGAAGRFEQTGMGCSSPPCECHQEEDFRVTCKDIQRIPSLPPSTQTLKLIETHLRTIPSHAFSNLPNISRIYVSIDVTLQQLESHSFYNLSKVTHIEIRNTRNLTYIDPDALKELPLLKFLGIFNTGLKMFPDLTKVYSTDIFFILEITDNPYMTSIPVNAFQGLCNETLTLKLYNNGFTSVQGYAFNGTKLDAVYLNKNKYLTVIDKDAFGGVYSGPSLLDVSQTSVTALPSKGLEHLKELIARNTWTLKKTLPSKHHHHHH

- RLU Average n = 3 [1]: 136000 RLU
- RLU Average n = 3 [2]: 2.48e+06 RLU
- RLU Average n = 3 [3]: 81500 RLU
- B/B0 [4]: 24.1
- RLU Average n = 3 [5]: 28800 RLU
- RLU Average n = 3 [6]: 117000 RLU
- B/B0 [7]: 55.5
- B/B0 [8]: 4.19
- B/B0 [9]: 704
- B/B0 [10]: 16.9
- B/B0 [11]: 361
- RLU Average n = 3 [12]: 183000 RLU
- RLU Average n = 3 [13]: 939000 RLU
- B/B0 [14]: 14.3
- RLU Average n = 3 [15]: 65800 RLU
- RLU Average n = 3 [16]: 4.85e+06 RLU
- RLU Average n = 3 [17]: 3.77e+06 RLU
- RLU Average n = 3 [18]: 166000 RLU
- B/B0 [19]: 19.7
- RLU Average n = 3 [20]: 98400 RLU
- B/B0 [21]: 6.77
- B/B0 [22]: 136
- RLU Average n = 3 [23]: 192000 RLU
- B/B0 [24]: 27.9
- B/B0 [25]: 9.57
- RLU Average n = 3 [26]: 46600 RLU
- B/B0 [27]: 26.6
- RLU Average n = 3 [28]: 382000 RLU
- B/B0 [29]: 548
- B/B0 [30]: 11.8
Substance: standard solution WHO 90/672 with a standardized concentration of autoimmune antibody (TSH receptor auto-antibody standard)

Reference: US8999727
